Data as given in patent US20200299408A1.

Assays:
[1] = biological target: commercial CD3ε; test: binding affinity on commercial CD3ε (Creative Biomart CD3E-2194H); method not given
[2] = biological target: hCD3ε1-27-Fc; test: monovalent binding affinity (p-1384), method not stated on the sheet
[3] = biological target: human CD3 on T cells (human) (UniProt P07766); test: Biacore, monovalent KD of the CD3 arm; form of the CD3 antigen not stated on the sheet [panel B]
[4] = biological target: CD3 antigen of Figures 3B and 3C (not named); test: kinetic table of IgGs; method and antigen not stated

Sequence of commercial CD3ε (P07766 22-126): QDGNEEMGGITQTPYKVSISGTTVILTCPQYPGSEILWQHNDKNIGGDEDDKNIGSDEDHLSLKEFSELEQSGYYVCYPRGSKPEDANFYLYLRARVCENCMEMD
Sequence of hCD3ε1-27-Fc (fusion chain, as listed by the source): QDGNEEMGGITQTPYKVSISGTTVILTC
Sequence of human CD3 on T cells (human) (P07766 22-207 limits assumed): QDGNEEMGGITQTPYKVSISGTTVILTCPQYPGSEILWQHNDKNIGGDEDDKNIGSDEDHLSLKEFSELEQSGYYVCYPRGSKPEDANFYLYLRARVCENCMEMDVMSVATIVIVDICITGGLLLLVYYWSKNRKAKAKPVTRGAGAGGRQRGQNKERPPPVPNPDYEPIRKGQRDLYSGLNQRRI

Kd [1] [nM]	Kd [4] [nM]	koff [4] [s⁻¹]	kon [4] [M⁻¹ s⁻¹]	Binder	further results
1.7				humanized 30A1: VH3 graft + A24V / K4 graft (antibody, V domains shown) VH: EVQLVESGGGLVQPGGSLRLSCAVSGFSLTNYAIHWVRQAPGKGLEWVGVIWAGGNTKYNSALMSRFTISRDNSKNTLYLQMNSLRAEDTAVYYCAREDSSGYVALDYWGQGTLVTVSS VL: DIVMTQSPDSLAVSLGERATINCKSSQSLLSGRTRKNYLAWYQQKPGQPPKLLIYWASTRESGVPDRFSGSGSGTDFTLTISSLQAEDVAVYYCKQSYYLLTFGQGTKVEIK	
				hu38E4.v1 Fab (Fab, V domains shown) VH: EVQLVQSGAEVKKPGASVKVSCKASGFTFTSYYIHWVRQAPGQGLEWIGWIYPENDNTKYNEKFKDRVTITADTSTSTAYLELSSLRSEDTAVYYCARDGYSRYYFDYWGQGTLVTVSS VL: DIVMTQSPDSLAVSLGERATINCKSSQSLLNSRTRKNYLAWYQQKPGQSPKLLIYWTSTRKSGVPDRFSGSGSGTDFTLTISSLQAEDVAVYYCKQSFILRTFGQGTKVEIK	Kd [2]: 1 nM
				38E4v1 (bispecific antibody, part only; not given: anti-HER2 arm and constant regions, V domains shown, not shown: another chain or arm of the molecule; a dimerising Fc or GST) VH: EVQLVQSGAEVKKPGASVKVSCKASGFTFTSYYIHWVRQAPGQGLEWIGWIYPENDNTKYNEKFKDRVTITADTSTSTAYLELSSLRSEDTAVYYCARDGYSRYYFDYWGQGTLVTVSS VL: DIVMTQSPDSLAVSLGERATINCKSSQSLLNSRTRKNYLAWYQQKPGQSPKLLIYWTSTRKSGVPDRFSGSGSGTDFTLTISSLQAEDVAVYYCKQSFILRTFGQGTKVEIK	Kd [3]: 1.3 nM
	0.119	1.59e-05	134000	18F12 (antibody, V domains shown) VH: QVQLQQSGPELVKPGASVKISCKASGYSFTNYYMHWVKQRPGQGLEWIGWISPGSGSIKYNEKFKGKATLTADTSSSTAYMQLSSLTSEDSAVYYCARDGYSLYFFDFWGQGTTLTVSS VL: DIVMTQSPSSLAVSAGEKVTMTCKSSQSLLNSRTRKNYLAWYQQKPGQSPKLLIYWASTRESGVPDRFTGSGSGTDFTLTISSVQAEDLAVYYCKQSFILRTFGGGTKLELK	
0.7				murine 13A3 (antibody, V domains shown) VH: EVQLQQSGPELVKPGASVRISCKASGYTFTSYYIHWMKQRPGQGLEWIGWIYPGNVNTKYNEKFKGKATLTADNSSSTANMQLSSLTSEDSAVYFCARNHDYYFDYWGQGTTLTVSS VL: DIVLTQSPSSLAVSAGEKVTMSCKSSQSLLNSRTRKNYLAWYQQKPGQSPKLLIYWASTRESGVPDRFTGSGSGTDFTLTISSVQAEDLAVYYCKQSYILRTFGGGTKLEIK	
0.4				murine 30A1 (antibody, V domains shown) VH: QVQLKESGPGLVAPSQSLSITCTVSGFSLTNYAIHWVRQPPGKGLDWLGVIWAGGNTKYNSALMSRLSFSKDNSKSQVFLEINSLQTDDTAMYYCAREDSSGYVALDYWGQGTSVTVSS VL: NIVMTQSPSSLAVSAGEKVTMSCKSSQSLLSGRTRKNYLAWYQQKPGQSPKLLIYWASTRESGVPDRFTGSGSGTDFTLTISSVQAEDLAVYYCKQSYYLLTFGAGTKLELK	
	0.492	0.000115	234000	27H5-1 (antibody, V domains shown) VH: QVQLQQSGPELVKPGTSVKISCKTSGYSFINYYTHWVKQRPGQGLEWIGWIYPGNGNIKYNEKFMGKATLTADTSSTTAHMHLSSLVSEDSAVYYCARDSYGSYYFDYWGQGTTLTVSS VL: DIVMTQSPSSLAVSVGEKVTMSCKSSQSLLNSRTRKNYLAWYQQKPGQSPKLLIYWASTRESGVPVRFTGSGSGTDFTLTISSVQAEDLAVYYCTQSFILRTFGGGTKLEIK	
	0.228	3.79e-05	166000	14C7 (antibody, V domains shown) VH: EVQLQQSGPELVKPGTSVKISCKASGFSFTNYYIHWMKQRPGQGLEWIGWIYPGSDNTKFNDKFKGKATLTADTSSTTAYMQLSSLTSEDSAVYYCARDSITNYYFDYWGQGTTLTVSS VL: DVVMTQTPSSLAVSTGEKVTMTCKSSQSLLNIRTRKNCLAWYQQKPGQSPKLLIFWASTRYSGVPDRFTGSGSGTDFTLTIRSVQPEDLAVYYCTQSYTLRTFGGGTKLEIK	
	0.249	4e-05	161000	muSP34 (antibody, V domains shown) VH: EVQLVESGGGLVQPKGSLKLSCAASGFTFNTYAMNWVRQAPGKGLEWVARIRSKYNNYATYYADSVKDRFTISRDDSQSILYLQMNNLKTEDTAMYYCVRHGNFGNSYVSWFAYWGQGTLVTVSS VL: QAVVTQESALTTSPGETVTLTCRSSTGAVTTSNYANWVQEKPDHLFTGLIGGTNKRAPGVPARFSGSLIGDKAALTITGAQTEDEAIYFCALWYSNLWVFGGGTKLTVL	
				SP34v52 Fab (Fab, V domains shown) VH: EVQLVESGGGLVQPGGSLRLSCAASGFTFNTYAMNWVRQAPGKGLEWVARIRSKYNNYATYYADSVKDRFTISRDDSKNTLYLQMNSLRAEDTAVYYCVRHGNFGNSYVSWFAYWGQGTLVTVSS VL: EAVVTQEPSLTVSPGGTVTLTCRSSTGAVTTSNYANWVQQKPGQAPRGLIGGTNKRAPWTPARFSGSLLGGKAALTLSGAQPEDEAEYYCALWYSNLWVFGGGTKLTVL	Kd [2]: 11 nM
